Laboratory results as given in paper doi:10.1101/2025.11.03.686288.

Experiments:
[1] = biological target: C-terminal His6-tagged PEX19 full-length (T. brucei); assay: AlphaScreen or HTRF
[2] = biological target: TbPEX38 (65-134) (T. brucei); assay: ITC
[3] = biological target: N-terminal GST-tagged PEX38 full-length (T. brucei); assay: AlphaScreen or HTRF

TbPEX38 (65-134) (domain or fragment)
IC50 [1]: 446 nM

untagged PEX38 full-length (natural protein)
IC50 [1]: 950 nM

TbPEX19 (1-50-SGGY) (domain or fragment)
Kd [2]: 3000 nM

C-terminal His6-tagged PEX19 N50 (domain or fragment)
fold weaker interaction with PEX38^FL than PEX19^FL (AlphaScreen signal) [3]: 10 fold

GST-PEX3Δ1-44 (domain or fragment)
fold higher affinity for PEX19 than PEX38 [1]: 30 fold
